Experimental data as given in patent US7307143 (MAX DELBR CK INSTITUT FUR MOLEKULARE HEDIZIN, dated 2007).
Each block holds one binder with its values, some of them ahead of it.

Target: T1, Adenomatosis Polyposis Coli (APC) (UniProt P25054 2-2843, limits assumed)
T1 construct: Stands for 'APC' where the sentence names no fragment; also called tumor suppressor protein APC
Assay: yeast 2-hybrid, partial pieces of conductin

T1 sequence (P25054 2-2843 limits assumed): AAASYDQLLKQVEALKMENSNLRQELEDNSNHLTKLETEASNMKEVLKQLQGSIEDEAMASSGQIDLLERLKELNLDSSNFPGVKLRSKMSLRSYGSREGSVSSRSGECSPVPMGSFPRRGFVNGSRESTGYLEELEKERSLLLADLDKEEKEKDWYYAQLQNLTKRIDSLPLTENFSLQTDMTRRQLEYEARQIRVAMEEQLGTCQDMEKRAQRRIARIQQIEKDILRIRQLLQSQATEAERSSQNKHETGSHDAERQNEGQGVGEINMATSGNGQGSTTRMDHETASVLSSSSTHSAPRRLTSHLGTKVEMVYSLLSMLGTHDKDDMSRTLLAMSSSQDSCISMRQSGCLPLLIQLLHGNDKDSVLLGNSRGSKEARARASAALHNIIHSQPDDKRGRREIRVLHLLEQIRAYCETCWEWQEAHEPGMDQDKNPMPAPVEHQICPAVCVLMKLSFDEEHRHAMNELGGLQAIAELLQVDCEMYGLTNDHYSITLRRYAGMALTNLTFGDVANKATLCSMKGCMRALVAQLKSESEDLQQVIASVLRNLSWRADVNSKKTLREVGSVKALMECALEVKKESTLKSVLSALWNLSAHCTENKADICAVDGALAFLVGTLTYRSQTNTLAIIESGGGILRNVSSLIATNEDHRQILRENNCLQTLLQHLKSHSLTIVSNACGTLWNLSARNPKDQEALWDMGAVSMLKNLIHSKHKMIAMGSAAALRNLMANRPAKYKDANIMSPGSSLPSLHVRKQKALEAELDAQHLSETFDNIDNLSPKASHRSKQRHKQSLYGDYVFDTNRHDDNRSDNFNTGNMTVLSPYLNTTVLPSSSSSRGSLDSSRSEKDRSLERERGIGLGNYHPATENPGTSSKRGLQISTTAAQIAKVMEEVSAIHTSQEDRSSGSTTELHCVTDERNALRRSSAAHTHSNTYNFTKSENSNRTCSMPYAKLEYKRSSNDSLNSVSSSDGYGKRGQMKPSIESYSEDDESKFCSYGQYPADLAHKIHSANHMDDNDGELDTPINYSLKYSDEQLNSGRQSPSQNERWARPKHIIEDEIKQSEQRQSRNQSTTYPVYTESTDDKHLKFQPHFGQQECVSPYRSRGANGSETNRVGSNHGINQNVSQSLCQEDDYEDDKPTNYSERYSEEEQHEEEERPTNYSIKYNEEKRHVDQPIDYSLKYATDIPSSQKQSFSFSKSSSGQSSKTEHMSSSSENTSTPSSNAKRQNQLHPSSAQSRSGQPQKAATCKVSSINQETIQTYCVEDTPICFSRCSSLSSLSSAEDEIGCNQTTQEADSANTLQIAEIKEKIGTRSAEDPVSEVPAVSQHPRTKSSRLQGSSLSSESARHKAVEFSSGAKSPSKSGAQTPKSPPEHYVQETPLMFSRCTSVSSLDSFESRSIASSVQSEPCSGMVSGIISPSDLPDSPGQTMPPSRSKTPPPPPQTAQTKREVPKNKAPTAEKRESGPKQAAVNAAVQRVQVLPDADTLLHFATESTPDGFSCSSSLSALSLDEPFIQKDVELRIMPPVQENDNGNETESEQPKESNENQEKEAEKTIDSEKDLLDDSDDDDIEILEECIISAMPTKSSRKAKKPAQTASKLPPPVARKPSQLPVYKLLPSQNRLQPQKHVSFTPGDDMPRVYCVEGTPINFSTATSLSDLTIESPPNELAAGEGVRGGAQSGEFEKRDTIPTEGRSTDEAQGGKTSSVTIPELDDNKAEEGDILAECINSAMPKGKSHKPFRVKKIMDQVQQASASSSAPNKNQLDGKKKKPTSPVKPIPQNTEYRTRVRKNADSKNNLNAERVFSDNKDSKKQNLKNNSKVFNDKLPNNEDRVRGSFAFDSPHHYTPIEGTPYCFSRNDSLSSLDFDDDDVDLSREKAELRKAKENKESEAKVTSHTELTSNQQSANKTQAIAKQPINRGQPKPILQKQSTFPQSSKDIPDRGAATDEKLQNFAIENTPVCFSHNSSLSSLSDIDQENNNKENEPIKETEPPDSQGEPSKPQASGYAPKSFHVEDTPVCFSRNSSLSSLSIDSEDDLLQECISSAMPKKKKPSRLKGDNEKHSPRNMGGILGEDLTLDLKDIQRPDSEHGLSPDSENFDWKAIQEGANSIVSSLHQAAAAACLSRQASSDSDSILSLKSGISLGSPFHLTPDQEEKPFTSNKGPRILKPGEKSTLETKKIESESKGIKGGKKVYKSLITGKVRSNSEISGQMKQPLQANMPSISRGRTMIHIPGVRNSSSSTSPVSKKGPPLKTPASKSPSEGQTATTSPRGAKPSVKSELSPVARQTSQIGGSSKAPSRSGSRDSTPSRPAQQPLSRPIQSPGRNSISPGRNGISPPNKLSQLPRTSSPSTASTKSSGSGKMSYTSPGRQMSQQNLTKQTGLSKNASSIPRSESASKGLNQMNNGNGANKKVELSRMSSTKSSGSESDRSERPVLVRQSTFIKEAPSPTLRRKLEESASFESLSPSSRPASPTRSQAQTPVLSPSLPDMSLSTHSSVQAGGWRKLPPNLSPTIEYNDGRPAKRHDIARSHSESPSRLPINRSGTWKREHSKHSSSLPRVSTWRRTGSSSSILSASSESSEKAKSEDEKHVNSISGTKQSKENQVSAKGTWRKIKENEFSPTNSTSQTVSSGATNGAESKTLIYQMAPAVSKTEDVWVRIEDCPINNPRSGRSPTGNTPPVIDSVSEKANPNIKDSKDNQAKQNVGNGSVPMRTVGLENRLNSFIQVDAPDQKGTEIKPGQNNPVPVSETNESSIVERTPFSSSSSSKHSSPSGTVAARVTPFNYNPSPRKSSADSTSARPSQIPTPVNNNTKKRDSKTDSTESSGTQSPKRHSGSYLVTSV

binding result: no binding
B1: conductin GSK 3b-binding domain (amino acids 343-396) (other)
chain: ANGQVSLPHFPRTHRLPKEMTPVEPAAFAAELISRLEKLKLELESRHSLEERLQ
notes: also called GSK BD

binding result: no binding
B2: conductin β-catenine binding domain (amino acids 397-465) (other)
chain: QIREDEEKEGSEQALSSRDGAPVQHPLALLPSGSYEEDPQTILDDHLSRVLKTPGCQSPGVGRYSPRSR
notes: also called b-BD

binding result: no binding
B3: conductin disheveled homology region (amino acids 783-833) (other)
chain: LTLGHFKEQLSKKGNYRYYFKKASDEFACGAVFEEIWDDETVLPMYEGRIL
